Measurements: patent US20150086555A1
Where two headings read alike, the source gives them in different places.

Legend:
Conditions in all cases: remark: other sources report otherwise
[1] = molecular target: T1, recombinant soluble homotrimeric HA of A/Anhui/1/05 (H5N1) (Influenza A virus A/Anhui/1/2005(H5N1)); assay: trimeric HA microarray, transfection supernatant set 1
[2] = molecular target: T2, recombinant soluble homotrimeric HA of A/California/4/09 (H1N1) (Influenza A virus A/California/04/2009(H1N1)); assay: as above
[3] = molecular target: T3, recombinant soluble homotrimeric HA of A/Egypt/3300-NAMRU3/08 (H5N1) (Influenza A virus A/Egypt/3300-NAMRU3/2008(H5N1)); assay: as above
[4] = molecular target: recombinant soluble homotrimeric HA of A/Indonesia/5/05 (H5N1) (Influenza A virus A/Indonesia/5/2005(H5N1)); assay: as above
[5] = molecular target: recombinant soluble homotrimeric HA of A/Japan/305/57 (H2N2) (Influenza A virus A/Japan/305/1957(H2N2)); assay: as above
[6] = molecular target: T4, recombinant soluble homotrimeric HA of A/Netherlands/219/03 (H7N7) (Influenza A virus A/Netherlands/219/03(H7N7)); assay: as above
[7] = molecular target: T5, recombinant soluble homotrimeric HA of A/Solomon Islands/3/06 (H1N1) (Influenza A virus A/Solomon Islands/3/2006(H1N1)); assay: as above
[8] = molecular target: recombinant soluble homotrimeric HA of A/Vietnam/1203/04 (H5N1) (Influenza A virus A/VietNam/1203/2004(H5N1)); assay: as above
[9] = molecular target: recombinant soluble homotrimeric HA of A/Wisconsin/67/05 (H3N2) (Influenza A virus A/Wisconsin/67/2005(H3N2)); assay: as above
[10] = molecular target: recombinant soluble homotrimeric HA of A/chicken/Vietnam/NCVD-016/08 (H5N1) (Influenza A virus A/chicken/Vietnam/NCVD-016/2008(H5N1)); assay: as above
[11] = molecular target: T6, recombinant soluble homotrimeric HA of A/duck/Yangzhou/02/05 (H8N4) (Influenza A virus A/duck/Yangzhou/02/2005(H8N4)); assay: as above
[12] = molecular target: T7, recombinant soluble homotrimeric HA of A/swine/Ontario/01911-2/99 (H4N6) (Influenza A virus A/Swine/Ontario/01911-2/99 (H4N6)); assay: as above
[13] = molecular target: T8, recombinant soluble homotrimeric HA of A/Hong Kong/1073/99 (H9N2) (Influenza A virus A/Hong Kong/1073/99 (H9N2)); assay: as above
[14] = molecular target: T9, recombinant soluble homotrimeric HA of A/Hong Kong/2108/03 (H9N2) (Influenza A virus A/HK/2108/2003(H9N2)); assay: as above
[15] = molecular target: T10, recombinant soluble homotrimeric HA of A/northern shoveler/California/HKWF115/07 (H6) (Influenza A virus A/northern shoveler/California/HKWF115/2007(H6N1)); assay: as above
[16] = molecular target: T9, recombinant soluble homotrimeric HA of …; assay: trimeric HA microarray, transfection supernatant set 3
[17] = molecular target: T9, recombinant soluble homotrimeric HA of …; assay: trimeric HA microarray, transfection supernatant set 4
[18] = molecular target: T1, recombinant soluble homotrimeric HA of …
[19] = molecular target: T2, recombinant soluble homotrimeric HA of …
[20] = molecular target: T3, recombinant soluble homotrimeric HA of …
[21] = molecular target: T8, recombinant soluble homotrimeric HA of …
[22] = molecular target: recombinant soluble homotrimeric HA of A/Hong Kong/156/97 (H5N1) (Influenza A virus A/Hong Kong/156/97 (H5N1))
[23] = molecular target: T4, recombinant soluble homotrimeric HA of …
[24] = molecular target: T5, recombinant soluble homotrimeric HA of …
[25] = molecular target: recombinant soluble homotrimeric HA of A/South Carolina/1/18 (H1N1) (Influenza A virus A/South Carolina/1/18 (H1N1))
[26] = molecular target: T6, recombinant soluble homotrimeric HA of …
[27] = molecular target: T10, recombinant soluble homotrimeric HA of …
[28] = molecular target: T7, recombinant soluble homotrimeric HA of …

| Binder | Trimeric HA Binding: RLU [1] [RLU] | Trimeric HA Binding: RLU [2] [RLU] | Trimeric HA Binding: RLU [3] [RLU] | Trimeric HA Binding: RLU [4] [RLU] | Trimeric HA Binding: RLU [5] [RLU] | Trimeric HA Binding: RLU [6] [RLU] | Trimeric HA Binding: RLU [7] [RLU] | Trimeric HA Binding: RLU [8] [RLU] | Trimeric HA Binding: RLU [10] [RLU] | Trimeric HA Binding: RLU [17] [RLU] | other results |
| --- | --- | --- | --- | --- | --- | --- | --- | --- | --- | --- | --- |
| TCN-504 (3251_K17) (antibody, V domains shown) VH: QVQLQESGPGLVKPSETLSLTCAVSGVSISNIDFYWGWIRQPPGKGLEWIGNIYYTGITFYNPSLSSRVAISIDTSKNQFSLTLTSVTAADTAMYYCARHYGDSEAINDAFDIWGQGTMLTVSS VL: EIVMTQSPATLSVSPGERATLSCRASQSVGNSLAWYQQRPGQAPRLLIYGASTRATGIPPRFSGSGSGTEFTLTISSLQTEDFAVYYCQQYINWRPLSFGGGTKVEIK | 29000 | 18300 | 16100 | 16600 | 15100 | 23800 | 29800 | 1300 | 27800 |  | Trimeric HA Binding: RLU [9]: 14300 RLU; Trimeric HA Binding: RLU [11]: 28900 RLU; Trimeric HA Binding: RLU [12]: 26500 RLU |
| TCN-523 (5248_A17) (antibody, V domains shown) VH: QVQLVQSGAEVKKPGSSVKVSCKASGGSFSNYAFSWVRQAPGQGLEWMGGTIPLLGTTNYAQKFQGRVTISADQFTSTAYMELGSLRSEDTAVYYCTRRKMTTAFDSWGQGTLVTVSS VL: QPVLTQPPSASASLGASVTLTCTLSSAYSNYKVDWYQQRPGKGPRFVMRVGTGGIVGSKGDGIPDRFSVLGSGLNRYLTIKNIQEEDESDYHCGADHGSGSNFVSPYVFGGGTKLTVL | 60 | 17700 | 25500 | 18500 | 191 | 28 | 6780 | 80 | 10800 | 38 | Trimeric HA Binding: RLU [13]: 21700 RLU; Trimeric HA Binding: RLU [14]: 41 RLU; Trimeric HA Binding: RLU [15]: 9050 RLU; Trimeric HA Binding: RLU [16]: 51 RLU |
| TCN-534 (5249_B02) (antibody, V domains shown) VH: QVQLVQSGAEVKKPGSSVKVSCRESGGTFNGYTITWVRQAPGQGLEWMGGIIPMMGTVNYAQKLQGRVTITTDYFTKTAYMDLNNLRSEDTAMYYCVKIRYTGQQLLWGQGTLVTVSS VL: DIQMTQSPSTLSASIGDRVTITCRASQSIASWLAWYQQKPGKAPKLLIYEAVNLESGVPSRFSGSGSGTDFTLTISSLQPDDFATYFCQHYGTISQTFGGGTKVEIK |  |  |  |  |  |  |  |  |  | 27 |  |
| TCN-563 (5237_B21) (antibody, V domains shown) VH: QVQLAQSGAEVKRPGSSVKVSCTASGGIFRKNAISWVRQAPGQGLEWMGGIIAVFNTANYAQKFQGRVKITADESGNTAYMELSSLRSDDTAVYYCASHPKYFYGSGSYPDFWGQGTLVTVSS VL: QSALTQPRSVSGSPGQSVTISCTGSSSDVGASNSVSWYQQHPGKAPKLVIYDVTERPSGVPHRFSGSKSGNTASLTVSGLQPEDEADYFCCAYGGKYLVVFGGGTKVTVL |  |  |  |  |  |  |  |  |  |  | Trimeric HA Binding: RLU [18]: 7520 RLU; Trimeric HA Binding: RLU [19]: 25900 RLU; Trimeric HA Binding: RLU [20]: 21600 RLU; Trimeric HA Binding: RLU [21]: 4600 RLU; Trimeric HA Binding: RLU [22]: 17700 RLU; Trimeric HA Binding: RLU [23]: 1690 RLU; Trimeric HA Binding: RLU [24]: 21000 RLU; Trimeric HA Binding: RLU [25]: 16300 RLU; Trimeric HA Binding: RLU [26]: 327 RLU; Trimeric HA Binding: RLU [27]: 21400 RLU; Trimeric HA Binding: RLU [28]: 376 RLU |
